According to US5493008A, “Two non-contiguous regions contribute to nidogen binding to a single EGF-like motif of the laminin γ1 chain” (The University Of Virginia Patent Foundation, priority 1994, dated 1996):
Where no end group is shown, it is not given here. The star is where a group is joined. Nle‑OMe = norleucine methyl ester coupled to carboxyl groups via carbodiimide, CCCC[C@H](N*)C(=O)OC

T1: nidogen (Mus musculus, UniProt P10493)
T1 sequence (P10493 29-1245): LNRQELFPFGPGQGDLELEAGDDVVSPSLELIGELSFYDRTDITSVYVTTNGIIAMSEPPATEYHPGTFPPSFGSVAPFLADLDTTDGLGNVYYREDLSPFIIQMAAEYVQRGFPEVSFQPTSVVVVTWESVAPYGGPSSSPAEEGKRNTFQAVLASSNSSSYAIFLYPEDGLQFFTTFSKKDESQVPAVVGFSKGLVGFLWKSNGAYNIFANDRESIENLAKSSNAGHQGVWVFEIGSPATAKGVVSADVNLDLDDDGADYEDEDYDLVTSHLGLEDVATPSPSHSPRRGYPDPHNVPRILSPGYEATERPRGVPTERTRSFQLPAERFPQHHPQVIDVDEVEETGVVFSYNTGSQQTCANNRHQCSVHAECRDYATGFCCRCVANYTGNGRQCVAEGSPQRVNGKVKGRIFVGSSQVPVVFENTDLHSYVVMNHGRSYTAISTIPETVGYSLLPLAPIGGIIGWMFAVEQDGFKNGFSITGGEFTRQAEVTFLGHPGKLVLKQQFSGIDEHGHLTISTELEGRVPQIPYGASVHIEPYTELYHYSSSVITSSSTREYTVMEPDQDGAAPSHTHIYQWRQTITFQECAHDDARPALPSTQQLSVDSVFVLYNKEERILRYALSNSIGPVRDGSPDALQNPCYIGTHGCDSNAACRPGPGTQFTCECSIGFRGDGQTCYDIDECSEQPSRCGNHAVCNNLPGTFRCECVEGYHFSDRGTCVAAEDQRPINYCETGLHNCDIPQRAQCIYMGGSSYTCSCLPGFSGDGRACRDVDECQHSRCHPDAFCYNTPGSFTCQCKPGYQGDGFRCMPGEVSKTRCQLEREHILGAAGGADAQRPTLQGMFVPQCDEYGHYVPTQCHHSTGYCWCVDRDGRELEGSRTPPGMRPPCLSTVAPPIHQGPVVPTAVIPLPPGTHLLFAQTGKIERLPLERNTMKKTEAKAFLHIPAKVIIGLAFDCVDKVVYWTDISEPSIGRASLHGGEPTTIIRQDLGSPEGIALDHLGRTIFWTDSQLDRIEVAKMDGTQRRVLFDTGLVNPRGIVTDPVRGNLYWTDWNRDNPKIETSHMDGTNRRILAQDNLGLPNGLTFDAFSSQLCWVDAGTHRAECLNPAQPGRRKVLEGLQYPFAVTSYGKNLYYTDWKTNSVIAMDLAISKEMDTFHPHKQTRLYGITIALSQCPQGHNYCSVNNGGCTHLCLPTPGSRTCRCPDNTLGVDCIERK

T2: recombinant nidogen (Mus musculus (Mouse), UniProt P10493)
T2 sequence: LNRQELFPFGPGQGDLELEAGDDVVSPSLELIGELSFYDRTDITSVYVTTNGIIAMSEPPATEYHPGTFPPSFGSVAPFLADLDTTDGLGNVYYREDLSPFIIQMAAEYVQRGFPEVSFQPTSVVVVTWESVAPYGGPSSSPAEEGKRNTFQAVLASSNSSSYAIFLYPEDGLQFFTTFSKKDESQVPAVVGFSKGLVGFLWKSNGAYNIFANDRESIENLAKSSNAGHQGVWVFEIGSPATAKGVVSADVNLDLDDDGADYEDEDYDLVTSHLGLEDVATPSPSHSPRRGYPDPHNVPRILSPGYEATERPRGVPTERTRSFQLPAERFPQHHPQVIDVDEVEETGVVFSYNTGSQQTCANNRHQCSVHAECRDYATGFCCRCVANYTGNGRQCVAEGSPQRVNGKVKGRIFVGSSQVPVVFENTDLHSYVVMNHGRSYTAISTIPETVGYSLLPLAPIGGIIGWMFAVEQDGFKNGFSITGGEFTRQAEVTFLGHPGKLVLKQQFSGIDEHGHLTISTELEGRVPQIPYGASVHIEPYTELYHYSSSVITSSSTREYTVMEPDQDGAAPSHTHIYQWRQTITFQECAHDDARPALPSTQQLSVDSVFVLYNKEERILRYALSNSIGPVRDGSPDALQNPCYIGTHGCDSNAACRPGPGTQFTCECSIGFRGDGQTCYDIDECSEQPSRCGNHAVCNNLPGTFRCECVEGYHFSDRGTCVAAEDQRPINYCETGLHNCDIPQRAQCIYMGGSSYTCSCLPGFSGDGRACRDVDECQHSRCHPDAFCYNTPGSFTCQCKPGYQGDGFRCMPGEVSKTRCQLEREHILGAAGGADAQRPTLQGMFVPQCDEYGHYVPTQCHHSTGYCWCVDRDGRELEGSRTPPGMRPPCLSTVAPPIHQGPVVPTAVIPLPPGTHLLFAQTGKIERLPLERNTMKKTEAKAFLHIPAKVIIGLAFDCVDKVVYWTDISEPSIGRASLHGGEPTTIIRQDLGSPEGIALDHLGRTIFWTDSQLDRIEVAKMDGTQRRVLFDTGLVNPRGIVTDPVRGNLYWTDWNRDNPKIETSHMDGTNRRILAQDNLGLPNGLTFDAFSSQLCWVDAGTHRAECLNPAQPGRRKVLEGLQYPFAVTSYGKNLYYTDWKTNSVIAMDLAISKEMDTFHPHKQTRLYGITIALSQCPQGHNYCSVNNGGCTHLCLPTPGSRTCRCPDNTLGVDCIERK


target: T1, nidogen; experiment: Radioligand competition assay: inhibition of 125I-laminin fragment P1 binding to nidogen; details: Table IV; recombinant mutants and chimeric structures of γ1III4; read-out: IC50 (inhibitory activity for laminin-nidogen binding)
Experimental: A radioligand competition assay was used for measurement of relative binding affinities (Mann K. et al. (1988), Eur. J. Biochem., 178, 71-80; Fox, J. W. et al. (1991), EMBO J., 10, 3137-3146). A fixed concentration of recombinant nidogen (0.2 nM) was incubated overnight at 4° C. with inhibitors at varying concentrations, followed by the addition of ^125 I-labeled laminin fragment P1 (0.01 nM; 10,000-20,000 c.p.m.) for the same incubation period. Bound and non-bound fragment P1 was then separated by antibodies against nidogen. Competitor concentrations causing 50% inhibition (IC50) were determined from dose-response profiles. […] IC50 values compared from different assays were normalized to a single fragment P1 value.

Row | Molecule | IC50 [µM]
1 | γ1III3-5Δ4: recombinant deletion mutant joining repeats 3 and 5, lacking EGF-like repeat 4 (protein) PCPCPGGSSCAIVPKTKEVVCTHCPTGTAGKRCELCDDGYFGDPLGSNGPVRLCRACACNPYGTVQQQSSCNPVTGQCQCLPHVSGRDCGTCDPGYYNLQSGQGCE | > 3.2

same assay, conditions: laminin-nidogen binding competition

Row | Molecule | inhibitory activity in words
2 | CC[C@H](C)[C@H](NC(=O)[C@H](CC(N)=O)NC(=O)[C@H](CC(=O)O)NC(=O)[C@H](CC(N)=O)NC(=O)[C@H](CS)NC(=O)[C@H](CCC(N)=O)NC(=O)[C@H](CS)NC(=O)[C@@H]1CCCN1)C(=O)N[C@@H](CC(=O)O)C(=O)N1CCC[C@H]1C(=O)N[C@@H](CC(N)=O)C(=O)N[C@@H](C)C(=O)N[C@H](C(=O)NCC(=O)N[C@@H](CC(N)=O)C(=O)N[C@@H](CS)C(=O)N[C@@H](CC(N)=O)C(=O)N[C@@H](CCCNC(=N)N)C(=O)O)C(C)C [T1, PCQCNDNTDPNAVGNCNR] | undiminished activity
3 | γ1III3-5Δ4: recombinant deletion mutant joining repeats 3 and 5, lacking EGF-like repeat 4 (protein) PCPCPGGSSCAIVPKTKEVVCTHCPTGTAGKRCELCDDGYFGDPLGSNGPVRLCRACACNPYGTVQQQSSCNPVTGQCQCLPHVSGRDCGTCDPGYYNLQSGQGCE | without measurable activity

target: T2, recombinant nidogen; experiment: radioligand competition assay: inhibitor varied, 0.2 nM recombinant nidogen, 125I-laminin fragment P1; details: not given
Experimental: (§1) A radioligand competition assay was used for measurement of relative binding affinities (Mann K. et al. (1988), Eur. J. Biochem., 178, 71–80; Fox, J. W. et al. (1991), EMBO J., 10, 3137–3146). A fixed concentration of recombinant nidogen (0.2 nM) was incubated overnight at 4° C. with inhibitors at varying concentrations, followed by the addition of ^125I-labeled laminin fragment P1 (0.01 nM; 10,000–20,000 c.p.m.) for the same incubation period. Bound and non-bound fragment P1 was then separated by antibodies against nidogen.

Row | Molecule | binding result | IC50 [nM]
4 | NVDPSAV | no binding (tested: >180,000 nM) | 
5 | NIDPNA [NIDPNA (S, 798-803)] | no binding (tested: >460,000 nM) | 
6 | DNIDPNAVGNCNRLTGECL [E1, 797-815] |  | 530
7 | AVGNCNR [Th1, 803-809] | no binding (tested: >30,000 nM) | 
8 | NIDPNAVGN [NIDPNAVGN (S, 798-806)] |  | 600
9 | PCQCN [E3, 792-796] | no binding (tested: >96,000 nM) | 
10 | NVDPSAS | no binding (tested: >290,000 nM) | 
11 | NVDPNAS | no binding (tested: >160,000 nM) | 
12 | recombinant fragment γ1III3-5 (other) PCPCPGGSSCAIVPKTKEVVCTHCPTGTAGKRCELCDDGYFGDPLGSNGPVRLCRPCQCNDNIDPNAVGNCNRLTGECLKCIYNTAGFYCDRCKEGFFGNPLAPNPADKCKACACNPYGTVQQQSSCNPVTGQCQCLPHVSGRDCGTCDPGYYNLQSGQGCE |  | 0.04
13 | γ1III3-5, Asp/Glu amidation (other, carboxyl groups (Asp, Glu) activated with 1-ethyl-3-dimethylaminopropylcarbodiimide and blocked by norleucine methylester) PCPCPGGSSCAIVPKTKEVVCTHCPTGTAGKRCELCDDGYFGDPLGSNGPVRLCRPCQCNDNIDPNAVGNCNRLTGECLKCIYNTAGFYCDRCKEGFFGNPLAPNPADKCKACACNPYGTVQQQSSCNPVTGQCQCLPHVSGRDCGTCDPGYYNLQSGQGCE |  | 2.1
14 | PCQCND(Nle‑OMe)NTD(Nle‑OMe)PNAVGNCNRLTGE(Nle‑OMe)CL (not fully specified; cysteine pairing not given here; also: carboxyl groups of Asp and Glu blocked with norleucine methyl ester (amidation), sites not placed) [synthetic loop a,b, amidated (792-815)] |  | > 5400

target: T2, recombinant nidogen; experiment: as above; details: not given; remark: another data set of the same source
Experimental: as §1

Row | Molecule | IC50 [nM]
15 | γ1III4 (other, disulfide (positions not given here); not fully specified (bridges); also: four disulfide-bonded loops, pairing not given here) PCQCNDNIDPNAVGNCNRLTGECLKCIYNTAGFYCDRCKEGFFGNPLAPNPADKCK | 0.05
